Measured values published in IntAct's records for PubMed 17875641.

B1: tRNA-specific adenosine deaminase subunit tad3 (Schizosaccharomyces pombe (strain ATCC 38366 / 972)), Q9P7N4 (parent)
chain: MVKTNISKNSPKEATVPELDWPFKLIKSHLETRKLETENVWIACFEPKYASKVTQYVKQIRSKQKESLLHCNRLRRIQDENGSLELQIIICPEKSMTANEIGKDFEDLGIVSKMIFLYAVPAFPPLTDEQFHEWNSVWPVSYRKHVQRQDVFTVHELKRIESILEDLINAAGASHKHGEIGCAAAIYDPTTDTVLAVSVDERSKLKNPINHCVMNAINLVAKRELSRRQNRTDGSKDRYLCKDLTVVMTHEPCVMCSMGLLHSRIRRLIYCKKQPLTGGIESLYGIHWRAELNHRYLAYSGWNKPVPSIKENIHV
partner: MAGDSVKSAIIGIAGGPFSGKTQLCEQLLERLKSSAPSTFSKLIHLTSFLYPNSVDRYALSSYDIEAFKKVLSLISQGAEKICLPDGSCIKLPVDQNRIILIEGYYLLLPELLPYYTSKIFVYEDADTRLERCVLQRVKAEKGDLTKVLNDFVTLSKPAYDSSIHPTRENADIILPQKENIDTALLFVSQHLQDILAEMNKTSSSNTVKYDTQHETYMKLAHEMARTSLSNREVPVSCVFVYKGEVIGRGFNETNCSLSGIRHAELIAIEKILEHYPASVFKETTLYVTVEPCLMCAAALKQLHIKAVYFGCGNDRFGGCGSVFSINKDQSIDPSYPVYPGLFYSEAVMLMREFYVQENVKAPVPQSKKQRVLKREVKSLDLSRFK

Variants of: B1
Conditions: with tad2_schpo tad2, O94642

effect of a mutation on the interaction | Variant
decreasing interaction | S257N
